The test addresses A/Perth/16/2009 H3 trimer (biotinylated, for BLI) (Influenza A virus A/Perth/16/2009 (H3N2), strain, biotin on the avi tag (BirA)). Kind of test: BLI. As to conditions: both partners purified.

B1: 09–1B12 Fab (mature; Lys-C digest of recombinant IgG, used for BLI) (Fab, V domains shown)
VH: QVQLVQSAPEVKRPGASVRLSCKASGYTFNTYGIIWVRQAPGQGLEWMGWISAYTGNTNYAQKVQGRVTMTTDITTSTAYLELRGLRSDDTAVYYCARGLLQGAVILDSYHYALDFWGQGTTVTVSS
VL: EIVLTQSPGTLSLSPGERATLSCRASQSVTNRFIAWYQHKPGQSPRLLIYGASSRATGIPDRFSGRGSGTDFTLTISRLEPEDFAVYYCQQYDTSPRWTFGQGTKLEIK
With B1, the binding result is listed as “binds”.

Source of the values: article PMC11096021 (Immunity, 2024).
